The values below come from patent publication US20220025050A1 (OSE IMMUNOTHERAPEUTICS, published 2022).

The target in assay [1] is T1, biotinylated Human PD1 (AcroBiosystems, reference EP-101) (human, UniProt Q15116 25-167, limits assumed, biotinylated).
T1 construct: also called biotinylated recombinant human PD-1; recombinant biotinylated PD1 protein
Description: competition ELISA: PD-L2 Fc immobilised, biotinylated PD-1 mixed with the fusion at varied concentration, streptavidin-peroxidase; blocked ligand PD-L2 [following]. As for the experimental part: (§1) FIG. 8: Competition PD-1/PD-L1 or PD-L2 ELISA assay. […] (D): PD-1/PD-L2 antagonist activity. […] Similar protocol as PD-L1/PD-1 assay was used for revelation. In this experiment, the bifunctional molecule comprises a humanized anti-PD1 antibody having a heavy chain variable domain as disclosed in SEQ ID NO: 24 and a light chain variable domain as disclosed in SEQ ID NO:28.
(§2) Competitive ELISA assay was performed by PD-1:PD-L1 Inhibitor Screening ELISA Assay Pair (AcroBiosystems; USA; reference EP-101). In this assay, recombinant hPDL1 was immobilized on plastic at 2 μg/ml in PBS pH 7.4 buffer. […] Same ELISA protocol was performed to assess PDL2/PD1 antagonist activity by coating PD-L2 Fc recombinant protein (Sinobiological, #10292-H02H).

For assay [2], the target named is T2, recombinant hPD1 (Sino Biologicals, reference 10377-H08H) (human, UniProt Q15116 25-167).
T2 construct: also called Human recombinant PD-1 protein; PD1-His recombinant protein
T2 sequence (Q15116 25-167 limits assumed): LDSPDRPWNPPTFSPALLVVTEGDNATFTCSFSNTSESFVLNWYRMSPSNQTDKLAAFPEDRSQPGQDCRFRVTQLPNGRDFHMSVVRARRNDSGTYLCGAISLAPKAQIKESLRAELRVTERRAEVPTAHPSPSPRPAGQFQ
Description: ELISA: hPD-1 immobilized, anti-human Fc peroxidase.

Assay [3] deals with T1, biotinylated Human PD1 (AcroBiosystems, …). Description: competition ELISA: PD-L1 immobilized, biotinylated PD-1 at fixed concentration, antibody varied. As for the experimental part:
as §1, §2

The term EC50 denotes the concentration that produces a half-maximal response. Broadly, the IC50 is the concentration at which inhibition is half-maximal. High values mean a need for much substance, low ones inhibition by little substance.

T1 sequence (Q15116 25-167 limits assumed): as above

B1: Humanized anti-PD1 (VH SEQ ID NO:24, VL SEQ ID NO:28) VH fusion to Cytokine-protein A (IL-7) (other, not shown: small tags and cut ends)
heavy: QIQLVQSGSELKKPGASVKVSCKASGYTFTHYAMNWVRQAPGQGLEWMGWINTNTGEPTYAQGFTGRFVFSLDTSVSTAYLQISSLKAEDTAVYYCAREREPGMDNWGQGTLVTVSS
VL: DVVMTQSPLSLPVTLGQPASISCRSSQSLVHANTNTYLEWYQQRPGQSPRLLIYKVSNRFSGVPDRFSGSGSGTDFTLKISRVEAEDVGVYYCFQGTHVPNTFGQGTKLEIK
notes: Bifunctional molecule; also called Anti-PD1 fused to Cytokine-protein A (IL-7), VH fusion; anti PD-1 VH IL-7
On to B1, for which the “IC50 (read off the curve)” value in assay [1] was roughly 0.7 µg/mL.

B2: Anti-PD1 Ab alone, no fusion, FIG. 4 / Table 1 (antibody, V domains shown)
VH: QIQLVQSGSELKKPGASVKVSCKASGYTFTHYAMNWVRQAPGQGLEWMGWINTNTGEPTYAQGFTGRFVFSLDTSVSTAYLQISSLKAEDTAVYYCAREREPGMDTWGQGTLVTVSS
VL: DVVMTQSPLSLPVTLGQPASISCRSSQSLVHANTNTYLEWYQQRPGQSPRLLIYKVSNRFSGVPDRFSGSGSGTDFTLKISRVEAEDVGVYYCFQGTHVPNTFGQGTKLEIKR
Consider B2, for which, in assay [2], the EC50 amounted to 0.00167 µg/mL.

B3: Anti-PD1 Ab alone, no fusion (FIG. 8 / Table 5) (antibody, V domains shown)
VH: QIQLVQSGSELKKPGASVKVSCKASGYTFTHYAMNWVRQAPGQGLEWMGWINTNTGEPTYAQGFTGRFVFSLDTSVSTAYLQISSLKAEDTAVYYCAREREPGMDNWGQGTLVTVSS
VL: DVVMTQSPLSLPVTLGQPASISCRSSQSLVHANTNTYLEWYQQRPGQSPRLLIYKVSNRFSGVPDRFSGSGSGTDFTLKISRVEAEDVGVYYCFQGTHVPNTFGQGTKLEIK
notes: also called anti-PD1 antibody alone
For the molecule B3, the IC50 in assay [3] turned out to be 0.184 µg/mL.

B4: Humanized anti-PD1 (VH SEQ ID NO:24, VL SEQ ID NO:28) VH fusion to CD80 (other, not shown: small tags and cut ends)
heavy: QIQLVQSGSELKKPGASVKVSCKASGYTFTHYAMNWVRQAPGQGLEWMGWINTNTGEPTYAQGFTGRFVFSLDTSVSTAYLQISSLKAEDTAVYYCAREREPGMDNWGQGTLVTVSS
VL: DVVMTQSPLSLPVTLGQPASISCRSSQSLVHANTNTYLEWYQQRPGQSPRLLIYKVSNRFSGVPDRFSGSGSGTDFTLKISRVEAEDVGVYYCFQGTHVPNTFGQGTKLEIK
notes: Bifunctional molecule; also called anti PD-1 VH CD80
With B4, the “IC50 (read off the curve)” value in assay [1] was roughly 0.9 µg/mL.
